Results published in patent publication US20230235047A1 (Innovent, published 2023).
Numbering of substitutions follows the chain as printed. Each block holds one binder with its values, some of them ahead of it.

Key:
[1] = target: T1, human CLDN18.1 on cells (CHO-hCLDN18.1) (human, UniProt P56856 1-261); test: flow cytometry, hybridoma supernatant on CHO-hCLDN18.1
T1 construct: whole, on cells; also called human Claudin18.1

[2] = target: T1, human CLDN18.1 on cells (CHO-hCLDN18.1); test: flow cytometry (FACS) on CHO-hCLDN18.1 cells
Protocol: (§1) The binding of each of the above 9 antibodies to the CHO-S cell lines stably transfected with human CLDN18.2 and human CLDN18.1 (i.e., CHO-hCLDN18.2 and CHO-hCLDN18.1 prepared as described in the Examples) obtained in Example 1 was determined by flow cytometry (FACS). Reference was made to Example 2 for the experimental methods. The experimental data were analyzed using GraphPad Prism software, and FIGS. 1 and 2 were obtained.

[3] = target: T2, human Claudin18.2 protein (P50251802, GenScript) (human, UniProt P56856-2 1-261, limits assumed); test: BLI (Fortebio Octet Red96), AHC sensor, antibody and human Claudin18.2 protein (GenScript)
T2 construct: also called human CLDN18.2
Protocol: The equilibrium dissociation constant (KD) for binding of the antibodies of the present invention to human CLDN18.2 was determined by bio-layer interferometry (BLI). A BLI affinity assay was conducted according to the existing method (Estep, P et al., High throughput solution based measurement of antibody-antigen affinity and epitope binding. MAbs, 2013.5(2): p. 270-8). The AHC (18-5060, Fortebio) sensor was soaked in SD buffer (lx PBS, BSA 0.1%, Tween-20 0.05%). 100 μL of SD buffer, each antibody and human Claudin18.2 protein (P50251802, GenScript) were added to a 96-well black polystyrene half-area microplate (Greiner, 675076), respectively. The detection was performed using Fortebio Octet Red96, and the KD values were analyzed using Fortebio Octet analysis software.

[4] = target: T3, human CLDN18.2 on cells (CHO-hCLDN18.2, HEK293-hCLDN18.2, KATO III-hCLDN18.2, DAN-G-hCLDN18.2, NUGC-4) (human, UniProt P56856-2 1-261); test: flow cytometry (FACS) on CHO-hCLDN18.2 cells, MFI against Log[Conc.(nM)]; EC50 from the table under the plot
T3 construct: whole, on cells; NUGC-4 is used untransfected; also called human Claudin18.2
Protocol: as §1

[5] = target: T2, human Claudin18.2 protein (P50251802, …); test: SPR (Biacore T200), human Claudin18.2 amine-coupled to the chip, antibody 0-100 nM in the mobile phase, 1:1 model
Protocol: According to the manufacturer's instructions, human Claudin18.2 (GenScrip, P50251802) was coupled to the surface of a CMS chip (GE Healthcare, 29-1496-03) using the amino coupling kit (GE Healthcare, BR-1006-33), and the remaining activation sites were blocked by injection of 1 M ethanolamine after coupling. According to the manufacturer's instructions, the binding and dissociation between the antigen on the chip surface and antibodies in the mobile phase were determined by Biacore (GE Healthcare, T200) to obtain affinity and kinetic constants. The antibodies (0-100 nM) after gradient dilution flowed over the chip surface in an order from low to high concentrations, with the binding time of 180 s and the dissociation time of 600 s. Finally, the chip was regenerated using 10 mM Glycine pH 1.5 (GE Healthcare, BR-1003-54). Kinetic analysis of the data results were performed using Biacore T200 analysis software with a 1:1 binding model.

binding result [1]: no binding
B1: 14A5 (antibody secreted by the hybridoma, culture supernatant) (antibody, V domains shown)
VH: QVQLKESGPGLVAPSQSLSITCSVSGFSLNSYGVGWVRQPPGKGLEWLGVIWGDGSTNYHSVLISRLSIRKDNSKSQVFLKLNSLQTDDTATYYCAMITRGNAMDYWGQGTSVTVSS
VL: DIVMTQSPSSLTVTAGEKITMSCKSSQSLLNSGNQRNYLTWYQQKPGQTPKLLIYWASTRKSGVPDRFTGSGSGTDFTLTISSVQAEDLAVYSCQNNYLFPLTFGAGTKLELK

binding result [1]: no binding
B2: 38F8 (antibody secreted by the hybridoma, culture supernatant) (antibody, V domains shown)
VH: EVQLVESGGGLVKPGGSLKLSCAASGFSFSDYGMHWVRQAPEKGLEWIAYINSGSRTLYYADTVKGRFTISRDNAKNTLFLQMTSLRSEETAMYYCTRNAYYGNAMDYWGQGTSVTVSS
VL: DIQMTQSPSSLTVTAGEKVTMSCKSSQSLLNSGNQRNYLTWYQQIPGQPPKLLIYWSSTRGSGVPDRFTGSGSGTDFTLTISSVQAEDLAVYFCQNVYYYPFTFGSGTRLEVK

binding result [2]: no binding | Kd [3]: 1.9 nM | EC50 [4]: 7.51 nM
B3: 51H10 (antibody, human IgG1, kappa, V domains shown)
VH: EVQLQQSVPELVKPGASVRMSCKASGYTFTKYIIQWVKQKPGQGLEWIAYINPYNDDTKYNEKFKGKATLTSDKSASTAYMELSSLTSEDSAVYYCATTYYGNSFPNWGQGTLVTVSA
VL: DIVMTQSPSSLTVTAGERVTMTCKSSQSLLNSGNQKNYLTWYQQKPGQPPKLLIYWASTRESGVPDRFTGSGSGTDFTLTISSLQSEDLAVYFCQNDYSFPFTFGSGTKLEIKR

binding result [1]: no binding
B4: 51H10 (antibody secreted by the hybridoma, culture supernatant) (antibody, V domains shown)
VH: B3 VH
VL: DIVMTQSPSSLTVTAGERVTMTCKSSQSLLNSGNQKNYLTWYQQKPGQPPKLLIYWASTRESGVPDRFTGSGSGTDFTLTISSLQSEDLAVYFCQNDYSFPFTFGSGTKLEIK

Kd [5]: 1.94 nM | koff [5]: 0.000631 s⁻¹ | kon [5]: 325000 M⁻¹ s⁻¹
B5: Hz51H10 (antibody, human IgG1, kappa, V domains shown)
VH: QVQLVQSGAEVKKPGASVKVSCKASGYTFTKYIIQWVRQAPGQRLEWMGYINPYNDDTKYNEKFKGRVTITRDTSASTAYMELSSLRSEDMAVYYCARTYYGNSFPNWGQGTLVTVSS
VL: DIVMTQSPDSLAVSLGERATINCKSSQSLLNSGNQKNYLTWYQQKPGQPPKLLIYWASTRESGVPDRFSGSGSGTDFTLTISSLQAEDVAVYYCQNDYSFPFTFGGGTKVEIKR

binding result [1]: no binding
B6: 3G3 (antibody secreted by the hybridoma, culture supernatant) (antibody, V domains shown)
VH: QVQLQQSGPQLVRPGASVKISCKASGYSFTTYWMHWVKQRPGQGLEWIGLIDPSDSETRLNQKFKDKATLTVDKSSSTAYMRLSSPTSEDSAVYYCASNRWLLGWGQGTLVTVSS
VL: B4 VL with V3Q, T5I, R18K, T22S, L84V, S86T, F93Y, F100Y, F102L, S106A

binding result [1]: no binding
B7: 69H9 (antibody secreted by the hybridoma, culture supernatant) (antibody, V domains shown)
VH: EVQLQQSGPELMKPGASVKISCKATGYSFSSYNIHWVKQSHGKSLEWIGYIAPFNGDSRYNQKFKGKATVTVDKSSSTAYMHLSSLTSEDSAVYYCGRLNRGNSLDYWGQGTSLTVSS
VL: B1 VL with I19V, L30F, T49P, K61E, V91F, S93Y, L99I, F100Y

binding result [1]: no binding
B8: 25C7 (antibody secreted by the hybridoma, culture supernatant) (antibody, V domains shown)
VH: EVMLVESGGGLVQPGGSRKLSCAASGFTFSDYGMAWVRQAPGKGPEWVAFINNLAYSIYYVDTVTGRFTISRENAKDTLYLEMSSLRSEDTALYYCARFTTGNVMDYWGQGTSVTVSS
VL: DIVMTQSPSSLTVTAGEKVTMTCKSSQSLLNGGNQKNYLTWYQQKPGQPPKLLIYWSSTRESGVPDRFTGSGSGTDFTLTITSVQAEDLAVYYCQNSYSYPLTFGSGTKLELK

binding result [1]: no binding
B9: 46F6 (antibody secreted by the hybridoma, culture supernatant) (antibody, V domains shown)
VH: QVQLKESGPGLVAPSQSLSITCTVSGFSLTDYGVSWIRQPPGKGLEWLGVMWGGGNTYYNSALKSRLSISKDNSKSQVFLKMNSLQSDDTAMYYCAKQRYGGNAMDYWGQGTSVTVSS
VL: DIQMTQSPSSLTVTAGEKVTMSCKSSQSLLNSGNQRNYLTWYQQIPGQPPKLLIYWASTRESGVPNRFTGSGSGAEFTLTISSVQTEDLAVYYCQNSYFYPFTFGAGTKLELK

binding result [1]: no binding
B10: 59C1 (antibody secreted by the hybridoma, culture supernatant) (antibody, V domains shown)
VH: QVQLKESGPDLVKPSQSLSLTCTVTGYSITSGYGWNWIRQFPGNKLEWMGYIHFSGSTNYNPSLKSRISITRDTSKNQFFLQLNSVTTEDTATYYCARSGKGNAMDYWGQGTSVTVSS
VL: DIQMTQSPSSLTVTAGEKVTMSCKSSQSLLNSGNQKNYLTWYQQKPGQPPKLLIYWASTRESGVPDRFTGSGSGTDFTLTVINMQAEDLALYYCQNDYYFPFTFGSGTKLEIK

Kd [5]: 0.314 nM | koff [5]: 9.97e-05 s⁻¹ | kon [5]: 318000 M⁻¹ s⁻¹
B11: Hz38F8 (antibody, human IgG1, kappa, V domains shown)
VH: EVQLVESGGGLVQPGGSLRLSCAASGFSFSDYGMHWVRQAPGKGLEWVSYINSGSRTLYYADTVKGRFTISRDNAKNSLYLQMNSLRDEDTAVYYCARNAYYGNAMDYWGQGTLVTVSS
VL: DIVMTQSPDSLAVSLGERATINCKSSQSLLNSGNQRNYLTWYQQKPGQPPKLLIYWSSTRGSGVPDRFSGSGSGTDFTLTISSLQAEDVAVYYCQNVYYYPFTFGQGTRLEIKR

Kd [5]: 14.2 nM | koff [5]: 0.000799 s⁻¹ | kon [5]: 56500 M⁻¹ s⁻¹
B12: Hz3G3 (antibody, human IgG1, kappa, V domains shown)
VH: QVQLVQSGAEVKKPGASVKVSCKASGYSFTTYWMHWVRQAPGQGLEWMGLIDPSDSETRLNQKFKDRVTMTVDTSTSTVYMELSSLRSEDTAVYYCASNRWLLGWGQGTLVTVSS
VL: B11 VL with R36K, S57A, G61E, V97D, Y99S, F102L, R109K

Kd [5]: 0.49 nM | koff [5]: 0.000208 s⁻¹ | kon [5]: 424000 M⁻¹ s⁻¹
B13: Hz14A5 (antibody, human IgG1, kappa, V domains shown)
VH: QVQLQESGPGLVKPSETLSLTCTVSGFSLNSYGVGWIRQPPGKGLEWIGVIWGDVSTNYHSVLISRVTISKDTSKNQVSLKLSSVTAADTAVYYCARITRGNAMDYWGQGTLVTVSS
VL: B11 VL with S57A, G61K, V97N, Y99L, Y100F, F102L, Q106G, R109K, L110V

Kd [5]: 9.84 nM | koff [5]: 0.00114 s⁻¹ | kon [5]: 116000 M⁻¹ s⁻¹
B14: Hz25C7 (antibody, human IgG1, kappa, V domains shown)
VH: EVQLVESGGGLVQPGGSLRLSCAASGFTFSDYGMAWVRQAPGKGLEWVAFINNLAYSIYYVDTVTGRFTISRDNAKNSLYLQMNSLRAEDTAVYYCARFTTGNVMDYWGQGTLVTVSS
VL: B11 VL with N31Q, S32G, R36K, G61E, V97S, Y99S, F102L, Q106G, R109K, L110V

Kd [5]: 1.75 nM | koff [5]: 0.000433 s⁻¹ | kon [5]: 248000 M⁻¹ s⁻¹
B15: Hz59C1 (antibody, human IgG1, kappa, V domains shown)
VH: QVQLQESGPGLVKPSETLSLTCTVSGYSITSGYGWNWIRQPPGKGLEWIGYIHFSGSTNYNPSLKSRVTISVDTSKNQFSLKLSSVTAADTAVYYCARSGKGNAMDYWGQGTLVTVSS
VL: B11 VL with R36K, S57A, G61E, V97D, Y100F, Q106G, R109K, L110V

Kd [5]: 1.03 nM | koff [5]: 0.00015 s⁻¹ | kon [5]: 147000 M⁻¹ s⁻¹
B16: Hz46F6 (antibody, human IgG1, kappa, V domains shown)
VH: QVQLQESGPGLVKPSETLSLTCTVSGFSLTDYGVSWIRQPPGKGLEWIGVMWGGGNTYYNSALKSRVTISVDTSKNQFSLKLSSVTAADTAVYYCARQRYGGNAMDYWGQGTLVTVSS
VL: B11 VL with S57A, G61E, V97S, Y99F, Q106G, R109K, L110V

binding result [1]: no binding
B17: HB37A6 (antibody secreted by the hybridoma, culture supernatant) (antibody, V domains shown)
VH: EVQLLDSGGGLVQPGGSLRLSCAASGFTFSSYVMSWVRQAPGKGLNWVSTISHSGGSTYYADSVKGRFTISRDNSKNTLYLQMNSLRAEDTAVYYCAIDAPYYDILTGYRYWGQGTLVTVSS
VL: not shown
